Drawing on publication PMC10397247, this text covers interaction score for five molecules.

One assay deals with T1, P10SHb.
T1 chain: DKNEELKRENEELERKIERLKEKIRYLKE
In words: two-hybrid library CCNG1.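 Further: natural log of median RNA to DNA barcode read ratio; higher means stronger binding.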

A further assay deals with T2, P11SHb.
T2 chain: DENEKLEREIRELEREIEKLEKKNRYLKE
The experiment in a line: two-hybrid library CCNG1.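 Further: natural log of median RNA to DNA barcode read ratio; higher means stronger binding.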

The target of another assay is T3, P12SHb.
T3 chain: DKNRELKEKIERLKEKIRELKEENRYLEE
In words: two-hybrid library CCNG1.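 Further: natural log of median RNA to DNA barcode read ratio; higher means stronger binding.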

Another assay has as its target T4, P1SHb.
T4 chain: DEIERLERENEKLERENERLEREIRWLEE
The experiment in a line: two-hybrid library CCNG1.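 Further: natural log of median RNA to DNA barcode read ratio; higher means stronger binding.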

For a further assay, the target named is T5, P2SHb.
T5 chain: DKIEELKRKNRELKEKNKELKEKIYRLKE
In words: two-hybrid library CCNG1.

The next assay has as its target T6, P3SHb.
T6 chain: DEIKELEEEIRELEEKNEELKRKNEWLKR
In words: two-hybrid library CCNG1.

Another assay has as its target T7, P4SHb.
T7 chain: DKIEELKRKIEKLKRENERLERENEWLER
In words: two-hybrid library CCNG1.

Another assay deals with T8, P5SHb.
T8 chain: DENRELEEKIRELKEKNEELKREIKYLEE
In words: two-hybrid library CCNG1.

The next assay has as its target T9, P6SHb.
T9 chain: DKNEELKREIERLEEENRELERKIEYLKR
The experiment in a line: two-hybrid library CCNG1.

For the next assay, the target named is T10, P7SHb.
T10 chain: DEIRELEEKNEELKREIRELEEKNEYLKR
In words: two-hybrid library CCNG1.

The target in the next assay is T11, P8SHb.
T11 chain: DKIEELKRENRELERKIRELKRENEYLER
The experiment in a line: two-hybrid library CCNG1.

For the next assay, the target named is T12, P9SHb.
T12 chain: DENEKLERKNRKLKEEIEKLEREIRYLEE
In words: two-hybrid library CCNG1.

The next assay has as its target T13, Core_NINN-es_KKKK.
T13 chain: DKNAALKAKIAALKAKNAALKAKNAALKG
The experiment in a line: two-hybrid library CCmax. The following applies: mean of both orientations.

Another assay has as its target T14, Core_NNNI-es_KKEE.
T14 chain: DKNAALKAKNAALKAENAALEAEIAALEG
In words: two-hybrid library CCmax. The following applies: mean of both orientations.

Another assay deals with T15, Core_INNN-es_KEEK.
T15 chain: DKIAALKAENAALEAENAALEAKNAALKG
The experiment in a line: two-hybrid library CCmax. To be noted: mean of both orientations.

The next assay has as its target T16, 4H1081-bN.
T16 chain: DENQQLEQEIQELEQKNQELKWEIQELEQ
In words: two-hybrid library CCNG1. The following applies: mean of both orientations.

The target of another assay is T17, 4H112-bN.
T17 chain: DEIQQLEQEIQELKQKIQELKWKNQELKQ
The experiment in a line: two-hybrid library CCNG1.

Another assay deals with T18, 4H1158-bN.
T18 chain: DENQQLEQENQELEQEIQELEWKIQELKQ
The experiment in a line: two-hybrid library CCNG1.

The next assay has as its target T19, 4H118-bN.
T19 chain: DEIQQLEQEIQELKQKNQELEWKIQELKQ
In words: two-hybrid library CCNG1.

A further assay concerns the target T20, 4H1348-bN.
T20 chain: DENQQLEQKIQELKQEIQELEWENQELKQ
In words: two-hybrid library CCNG1.

Another assay addresses T21, 4H1373-bN.
T21 chain: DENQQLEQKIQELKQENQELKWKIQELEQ
The experiment in a line: two-hybrid library CCNG1.

In another assay the target is T22, 4H1544-bN.
T22 chain: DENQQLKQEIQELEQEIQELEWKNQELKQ
The experiment in a line: two-hybrid library CCNG1.

The target of the next assay is T23, 4H170-bN.
T23 chain: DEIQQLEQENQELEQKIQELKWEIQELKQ
The experiment in a line: two-hybrid library CCNG1.

The next assay concerns the target T24, 4H1710-bN.
T24 chain: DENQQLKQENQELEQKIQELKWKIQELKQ
The experiment in a line: two-hybrid library CCNG1.

For a further assay, the target named is T25, 4H1831-bN.
T25 chain: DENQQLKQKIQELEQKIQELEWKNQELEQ
In words: two-hybrid library CCNG1.

The target of the next assay is T26, 4H1899-bN.
T26 chain: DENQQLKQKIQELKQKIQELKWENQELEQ
The experiment in a line: two-hybrid library CCNG1.

The next assay concerns the target T27, 4H1985-bN.
T27 chain: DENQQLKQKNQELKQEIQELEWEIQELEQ
The experiment in a line: two-hybrid library CCNG1.

The target of the next assay is T28, 4H2586-bN.
T28 chain: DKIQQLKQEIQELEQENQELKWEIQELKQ
The experiment in a line: two-hybrid library CCNG1.

The target of another assay is T29, 4H2627-bN.
T29 chain: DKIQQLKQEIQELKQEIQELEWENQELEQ
In words: two-hybrid library CCNG1.

Another assay concerns the target T30, 4H2673-bN.
T30 chain: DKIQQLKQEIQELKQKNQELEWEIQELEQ
The experiment in a line: two-hybrid library CCNG1.

The target of the next assay is T31, 4H2702-bN.
T31 chain: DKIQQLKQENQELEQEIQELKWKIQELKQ
The experiment in a line: two-hybrid library CCNG1.

The target in another assay is T32, 4H3010-bN.
T32 chain: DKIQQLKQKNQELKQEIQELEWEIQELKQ
In words: two-hybrid library CCNG1.

The target of another assay is T33, 4H3112-bN.
T33 chain: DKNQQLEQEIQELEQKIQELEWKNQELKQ
In words: two-hybrid library CCNG1.

The target of the next assay is T34, 4H3162-bN.
T34 chain: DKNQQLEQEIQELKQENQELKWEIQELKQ
The experiment in a line: two-hybrid library CCNG1.

A further assay concerns the target T35, 4H3175-bN.
T35 chain: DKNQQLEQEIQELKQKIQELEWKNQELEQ
In words: two-hybrid library CCNG1.

Another assay concerns the target T36, 4H3277-bN.
T36 chain: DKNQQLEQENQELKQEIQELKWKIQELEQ
In words: two-hybrid library CCNG1.

The target in another assay is T37, 4H3298-bN.
T37 chain: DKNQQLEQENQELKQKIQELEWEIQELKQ
In words: two-hybrid library CCNG1.

The target in a further assay is T38, 4H3364-bN.
T38 chain: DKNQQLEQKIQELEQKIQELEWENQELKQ
In words: two-hybrid library CCNG1.

A further assay has as its target T39, 4H3427-bN.
T39 chain: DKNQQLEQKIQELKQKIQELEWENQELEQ
The experiment in a line: two-hybrid library CCNG1.

A further assay concerns the target T40, 4H346-bN.
T40 chain: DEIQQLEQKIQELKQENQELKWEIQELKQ
The experiment in a line: two-hybrid library CCNG1.

The target in another assay is T41, 4H3462-bN.
T41 chain: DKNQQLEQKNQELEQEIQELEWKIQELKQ
The experiment in a line: two-hybrid library CCNG1.

For another assay, the target named is T42, 4H3497-bN.
T42 chain: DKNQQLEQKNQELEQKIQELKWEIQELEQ
In words: two-hybrid library CCNG1.

The next assay concerns the target T43, 4H3613-bN.
T43 chain: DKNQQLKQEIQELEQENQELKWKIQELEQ
In words: two-hybrid library CCNG1.

The next assay deals with T44, 4H3628-bN.
T44 chain: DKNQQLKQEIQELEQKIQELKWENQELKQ
In words: two-hybrid library CCNG1.

A further assay has as its target T45, 4H3926-bN.
T45 chain: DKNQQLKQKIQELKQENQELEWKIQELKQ
The experiment in a line: two-hybrid library CCNG1. The following applies: mean of both orientations.

The target of the next assay is T46, 4H4073-bN.
T46 chain: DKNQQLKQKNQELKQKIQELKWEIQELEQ
In words: two-hybrid library CCNG1.

The target in a further assay is T47, 4H457-bN.
T47 chain: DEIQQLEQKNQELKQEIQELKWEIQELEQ
The experiment in a line: two-hybrid library CCNG1.

A further assay has as its target T48, 4H575-bN.
T48 chain: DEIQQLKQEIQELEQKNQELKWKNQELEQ
In words: two-hybrid library CCNG1.

In another assay the target is T49, 4H591-bN.
T49 chain: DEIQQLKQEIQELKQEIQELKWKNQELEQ
The experiment in a line: two-hybrid library CCNG1.

For the next assay, the target named is T50, 4H626-bN.
T50 chain: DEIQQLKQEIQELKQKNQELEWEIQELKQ
In words: two-hybrid library CCNG1.

A further assay has as its target T51, 4H683-bN.
T51 chain: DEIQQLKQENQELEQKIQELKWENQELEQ
The experiment in a line: two-hybrid library CCNG1.

The target in the next assay is T52, 4H754-bN.
T52 chain: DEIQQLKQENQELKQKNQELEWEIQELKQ
In words: two-hybrid library CCNG1.

The next assay concerns the target T53, 4H780-bN.
T53 chain: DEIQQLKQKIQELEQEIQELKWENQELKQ
In words: two-hybrid library CCNG1.

For a further assay, the target named is T54, 4H797-bN.
T54 chain: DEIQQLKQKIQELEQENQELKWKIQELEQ
In words: two-hybrid library CCNG1.

In a further assay the target is T55, 4H855-bN.
T55 chain: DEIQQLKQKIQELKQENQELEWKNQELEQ
The experiment in a line: two-hybrid library CCNG1.

The next assay has as its target T56, 4H906-bN.
T56 chain: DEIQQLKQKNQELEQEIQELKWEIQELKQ
The experiment in a line: two-hybrid library CCNG1.

In a further assay the target is T57, 4H918-bN.
T57 chain: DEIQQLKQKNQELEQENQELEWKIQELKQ
The experiment in a line: two-hybrid library CCNG1.

The target in another assay is T58, 4H953-bN.
T58 chain: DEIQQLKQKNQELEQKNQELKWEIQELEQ
In words: two-hybrid library CCNG1.

A further assay addresses T59, 4H968-bN.
T59 chain: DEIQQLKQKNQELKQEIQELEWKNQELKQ
The experiment in a line: two-hybrid library CCNG1.

As to DKNEELKRENEELERKIERLKEKIRYLKE [P10SHb], the interaction score with P10SHb is 0.734; with P11SHb, 1.08; with P12SHb it was -0.4; with P1SHb, -1.44; with P2SHb, 0.782; with P3SHb, -1.86. Also, the interaction score in the assay with P4SHb was -0.49; in the assay with P5SHb, 0.808; with P6SHb, 1.07; with P7SHb it was -0.582; with P8SHb, -0.0171; with P9SHb it was 1.97.
For the molecule DENAALEAEIAALEAENAALEAENAALEG [Core_NINN-es_EEEE], the interaction score with Core_NINN-es_KKKK was 2.
The molecule DENAALEAENAALEAKNAALKAKIAALKG [Core_NNNI-es_EEKK] returned an interaction score with Core_NNNI-es_KKEE of 2.38.
Molecule DEIAALEAKNAALKAKNAALKAENAALEG [Core_INNN-es_EKKE] yielded an interaction score with Core_INNN-es_KEEK of 1.91.
Consider DENQQLEQEIQELEQKNQELKWEIQELEQ [4H1081-bN], for which the interaction score is -0.711 with 4H1081-bN; -0.856 with 4H112-bN; -1.04 with 4H1158-bN; -0.492 with 4H118-bN; -1.49 with 4H1348-bN; -1.6 in the assay with 4H1373-bN. The interaction score in the assay with 4H1544-bN was -1.22; in the assay with 4H170-bN it was -1.72; with 4H1710-bN it was -2; with 4H1831-bN it was -0.661; in the assay with 4H1899-bN it was -0.693; in the assay with 4H1985-bN it was -1.65. Further, the interaction score is -0.764 in the assay with 4H2586-bN; -0.602 with 4H2627-bN; -0.316 with 4H2673-bN; 0.0755 with 4H2702-bN; -0.379 with 4H3010-bN; -0.643 with 4H3112-bN. The interaction score with 4H3162-bN is -1.74; with 4H3175-bN, -0.589; with 4H3277-bN it was -2.73; in the assay with 4H3298-bN, -1.1; in the assay with 4H3364-bN, 0.163; with 4H3427-bN, -0.819. The interaction score in the assay with 4H346-bN was -0.916; with 4H3462-bN it was -0.385; in the assay with 4H3497-bN, -0.836; with 4H3613-bN, -1.17; in the assay with 4H3628-bN it was -0.745; with 4H3926-bN, 1.86. For the same molecule, the interaction score in the assay with 4H4073-bN was -0.961; in the assay with 4H457-bN it was -0.831; in the assay with 4H575-bN, -1.36; with 4H591-bN it was -1; with 4H626-bN, -1.12; in the assay with 4H683-bN, -0.818. Also, the interaction score with 4H754-bN was -0.498; with 4H780-bN it was -1.12; with 4H797-bN, -0.855; in the assay with 4H855-bN, -1.78; in the assay with 4H906-bN it was -1.43; with 4H918-bN, -1.87. Also, the interaction score is -0.906 in the assay with 4H953-bN and -1.97 in the assay with 4H968-bN.
